Consider 24 sequences from the DeepSol protein solubility set.

The nature of the data set: soluble on expression in E. coli; label from the status in PepcDB or PDB records.
Turning to “MLSIHDPLLIFTDLDGTLLNSHTFEWQPAAPWLTRLHESGVPVILCSSKTAAEMLQLQTTLNLQGLPLIAENGAVIQLDVHWEDHPNYPRLIAGISHNEIRLVLHKLREKEQFKFTTFDDVDDQVISEWTGLNRAQSALTRLHEASVSLIWRDSDERMAQFVARLNDLGLQFVHGARFWHVLDASAGKDQAANWLIEAYRRQWRARPLTLGLGDGPNDAPLLDVMDYAVVVKGLNREGVHLRNDDPQRVYRSQNEGPDGWREGMDYFFSRSLEHHHHHH”, the “soluble on expression in E. coli” value is reported as “soluble”.
In the case of “MVAKISVGSSLFGALSYNQNKVDEEQGKVLLSNRMFESEDGNFSIRRCMECFDMHLPADLKTEKPIIHISLNPHPDDVLSDSQLADIAKEYMDKLGYGNQPYMVYKHEDIARHHIHIVSIRVDDTGKKINDKFEHIRSKQITRELEQKYGLHPAEKKQAADRPELKKVDYRAGDVKHQLSNTVKALASSYRFQSFTEYKALLSIYNVQAEEVKGEVNGKPYNGIVYSATNDKGEKQGNPFKSSSLGKSVGYEAIQRHIKKSTKDIQDKNLKERTRRTVGAVMKSAHSRKELEQELKRKGIDVLFRQNDTGRIYGVTFIDHENRTVLNGSRLGKDFSANVFNDLFSGSRTLSGNSKQETQEQKPEYNPTGHLENTGKAIAGLFSLLSGGNDTPPDNSQVPPPKKKKKKKQRRILEHHHHHH” it was “soluble”; in that of “MSHHHAPVDFEKEASILRNHFNNAEIDLLLLIKKHVMYGAKNPTKWKFIQQSRLIRFKRELKAHISLFKDETRNKIDKLTYRVYLDCVNEYEDEMEARYQTKKEVDIQNDDYLSESDALIQISEDMANYWQKIAPSKYKQVVKETKDSNGVLKYAIATSLINVLGDGIRNVIDQSGRKYRPGAYMEMASRGAFFNVGLNAMKRVLGRYEHELVQVSAHVRSCPRCAPWQGEVLSVNYESNEYKTLQEAENDGLFHPNCHHFLYSYFEGDETDEPIPYDEEEYEAQSKQRYYERGIRDWKTKDILAEGPSKQYTAGKVKQWEEALQEHLNNN”, “not soluble”.
In the case of “MIRLNVFVRVNETNREKAIEAAKELTACSLKEEGCIAYDTFESSTRRDVFMICETWQNAEVLAAHEKTAHFAQYVGIIQELAEMKLEKFEF” it was “soluble”; in that of “MEMISNNLNWFVGVVEDRMDPLKLGRVRVRVVGLHPPQRAQGDVMGIPTEKLPWMSVIQPITSAAMSGIGGSVTGPVEGTRVYGHFLDKWKTNGIVLGTYGGIVREKPNRLEGFSDPTGQYPRRLGNDTNVLNQGGEVGYDSSSNVIQDSNLDTAINPDDRPLSEIPTDDNPNMSMAEMLRRDEGLRLKVYWDTEGYPTIGIGHLIMKQPVRDMAQINKVLSKQVGREITGNPGSITMEEATTLFERDLADMQRDIKSHSKVGPVWQAVNRSRQMALENMAFQMGVGGVAKFNTMLTAMLAGDWEKAYKAGRDSLWYQQTKGRASRVTMIILTGNLESYGVEVKTPARSLSAMAATVAKSSDPADPPIPNDSRILFKEPVSSYKGEYPYVHTMETESGHIQEFDDTPGQERYRLVHPTGTYEEVSPSGRRTRKTVDNLYDITNADGNFLVAGDKKTNVGGSEIYYNMDNRLHQIDGSNTIFVRGDETKTVEGNGTILVKGNVTIIVEGNADITVKGDATTLVEGNQTNTVNGNLSWKVAGTVDWDVGGDWTEKMASMSSISSGQYTIDGSRIDIGSVDHHHHHH”, “soluble”; in that of “MSMDIVMKSDEQPFISAPVCFKTFAFFAKASAEECKLLASGSNARESFQQATGLSEKITEDIYRQIDVSHISSMVFNREMDGGIERNRLGSQAILLDENSRRRNPQFKSIALRSLRYDHIDHRALARKSPHLMPPTYIKEEIMDDELDEVKEEEVSVGEAALPTAKVELNMDHPEKDLIISTSVYLGYTRTLQYHEIRLGRLMKVTDRLELTGDHTLRDLKNAFSCPIDFSFSDDFSEKKPSFKDMAKNKWPSSMFFIHDTFYIDSNTGDQFVDPSITIRTWAKKFDYIGPMHVKQMSETRIGDLICRLGQPYVYIHQGVCEHLIVFNDLCLRDESHTNVEFPRRLVERNFRRIACDTCKEASAHWMIVDHDNLLPNSPGYLCSSCYKEFCFDVNGNKVCQFKAVPYCDRKDIGDGRQFFTELDL”, “not soluble”.
Turning to “MGSDKIHHHHHHNEAQVSAVKQFVEGFNQKNVQSMQSHTTDDVKWFSISEGAMALETSDKEELGEAMQNYFSGYSSAHAKIVNLVNSGDFISTVEQVKWQNEGKWFMQCSLGVYRFKQNKIASVWYYPAHVCDATNAQVN”, the “soluble on expression in E. coli” value is given as “not soluble”.
Turning to “SLLGGPGIELFRRLVEEYEREHDVPMADIAAALAVQCRGGEAFLMAPDPPLSRRNRDQRRDRPQRPKRRPDLTTYRVAVGKRHKIGPGAIVGAIANEGGLHRSDFGQIRIGPDFSLVELPAKLPRATLKKLAQTRISGVLIDLRPYRPPDAARRHNGGKPRRKHVG”, the “soluble on expression in E. coli” value is “not soluble”.
With “MTQYVFEMGMTCNGCANAARKVLGKLGEDKIKIDDINVETKKITVTTDLPASDVLEALKKTGKEIKQLQ” the entry was “not soluble”; with “MSLSVQREDVDIKLIAIDMDGTLLNDEQLISDENRKAIREAEDKGVYVVISTGRTLMTCRELAESLKLSSFLITANGSEIWDSNFNLVERKLLHTDHIQMMWDLRNKHNTNFWASTVNKVWRGEFPENITDHEWLKFGFDIEDDDIRNEVLEELRKTKSSEITNSSPTNIEVNALGINKAAAPCQGYGKLGFTMENVMAMGDSLNDIAMIKEAGLGVAMGNAQDIVKETADYITDTNIEDGVAKAIRHWVLEGHHHHHH”, “soluble”.
As for “MSLDRTLRGRVEGKVVLITGATSGIGKATARKLAEAGAKVLTIARDEHKIAETQAEFAELGLTLQVYQGDLADLSQGEAITRQIVAEHGGVDILINNAGRSIRRAIEDSFDRFHDLERTMQLNYFGTLKVIMGLLPTMIEKKKGHIINISSIGVLTNAPRFSAYVASKSALDAWVRTAASEFADKGVNFSIINMPLVKTPMVAPTKVYEQVPMMTPEEAADLVCDTIINKHVRLATRLGVFGQVIHALAPRVAQVIMNTSEGHHHHHH”, the “soluble on expression in E. coli” value is on record as “not soluble”.
With “MKKIISLALALALSASAAELKMATTTSTDNTGLLDALKPLYEKESGNTLKWVAVGTGAALKMGEDCNADVLFVHSPKAEKEFMKKGFGVDRTPVMYNDFIIIADKSLASKFKGKNLKESLELIKNEKLTFISRGDKSGTDNKEKSLWKNLGGVPEKQSWYQQSGQGMLASIKIAEEKKGVILTDRGTYIKYEANEKGKPNLVIVNEGDDSLKNFYSVIATNPKHCKNVNYTEASKFIKWVTSDKTLNFIADFKLLNKPLFVIDAKTRKD” the entry was “not soluble”; with “AGTHDYSTALKDSIIFFDANKCGPQAGENNVFDWRGACHTTDGSDVGVDLTGGYHDAGDHVKFGLPQGYSAAILGWSLYEFKESFDATGNTTKMLQQLKYFTDYFLKSHPNSTTFYYQVGEGNADHTYWGAPEEQTGQRPSLYKADPSSPASDILSETSAALTLMYLNYKNIDSAYATKCLNAAKELYAMGKANQGVGNGQSFYQATSFGDDLAWAATWLYTATNDSTYITDAEQFITLGNTMNENKMQDKWTMCWDDMYVPAALRLAQITGKQIYKDAIEFNFNYWKTQVTTTPGGLKWLSNWGVLRYAAAESMVMLVYCKQNPDQSLLDLAKKQVDYILGDNPANMSYIIGYGSNWCIHPHHRAANGYTYANGDNAKPAKHLLTGALVGGPDQNDKFLDDANQYQYTEVALDYNAGLVGVLAGAIKFFGGTIVNPPVKK”, “soluble”; with “QHQEAGAGDLCALCGEHLYVLERLCVNGHFFHRSCFRCHTCEATLWPGGYEQHPGDGHFYCLQHLPQTD”, “soluble”.
For the sequence “MSFGKIVVFLVLVLVQLIHCTRFTAPSLDRTIYYRNTPPDPFGHYSFEFQTTNGITTKGAGNENGAVGVVQFVSPEGIPVTFSYVADANGYQPTGDHIPAIPLHVIRQLEYIRTHPPVDEIRSRRWLEHHHHHH”, the “soluble on expression in E. coli” value is reported as “not soluble”.
With “MAEYEFMYIHSLAEHYLQYVLQVPAFESAPSQACRVLQRVAFSVQKEVEKNLKSYLDDFHVESIDTARIIFNQVMEKEFEDGIINWGRIVTIFAFGGVLLKKLPQEQIALDVGAYKQVSSFVAEFIINNTGEWIRRNGGWEDGFIKKFEPKSGWLTFLQMTGQIWEMLFLLK”, the “soluble on expression in E. coli” value is given as “not soluble”.
In the case of “MGSDKIHHHHHHADLQSNFLKMLVTQMNNQDPLNPMDNAQLTSQLAQISTVSSMQTMNSTLTQLLNQTSASRAMDSAALIGRTVMVPGSQFSVKDGVAGQFGVDLPSTADAVTVNVLDAHGNVVRTIDMKGQTAGVHDIAWDGKNDAGVAVADGDYSFKVSATANGTSVQPVALVYGKVNSISGDSSGVLVDVGNGQQANVDDVRRIL”, the “soluble on expression in E. coli” value is “not soluble”.
Consider “FGTFKSAITDYHGYEYKNHGYGLALTDTDLLGGSSGSLVFNQDKKISSIYSAATESDSVGYAQLLPVPKDV”, for which the “soluble on expression in E. coli” value is “not soluble”.
“MASSLNEDPEGSRITYVKGDLFACPKTDSLAHCISEDCRMGAGIAVLFKKKFGGVQELLNQQKKSGEVAVLKRDGRYIYYLITKKRASHKPTYENLQKSLEAMKSHCLKNGVTDLSMPRIGCGLDRLQWENVSAMIEEVFEATDIKITVYTL”: the “soluble on expression in E. coli” value was “soluble”.
For the sequence “DEQEKLLRLVDNSVELMSLLGTNNINSYINKAGMELLGFDTMEQVLRTPISELHLKEDFEKVSANVITSLQDKGRWSGQMNVRNLKSGEVIPVYNNTVRIDDPATGEILAFGAVMRDMR”, the “soluble on expression in E. coli” value is listed as “not soluble”.
Regarding “METSNFVKQLSSNNRKTRVNALEALKKYLTAKQFKENKQIEFNKLWKGLYYAMWFSDRPRPQQRLANELGELHGLYFDPKDNSTADELTTNDKAFIKFSRGFWKVMCFEWFNIDRYRLDKYLLLIRRVLFSQLKYLQSRNWDKKLVDEYIKKVLRWLPLSGSPKVYTGIPIHIVDILLDEWERLLKDGDEDDEDEENKEEEMRKIAESAKKTPLADVIAIFQDIVADYNNSKVLREKIKEDLFSDTRLVSWDILEGETQHNDSSNESEEEEEEEWKGF”, the “soluble on expression in E. coli” value was “not soluble”.
Consider “MGSDKIHHHHHHMLQNPIHLRLERLESWQHVTFMACLCERMYPNYAMFCQQTGFGDGQIYRRILDLIWETLTVKDAKVNFDSQLEKFEEAIPSADDFDLYGVYPAIDACVALSELVHSRLSGETLEHAVEVSKTSITTVAMLEMTQAGREMSDEELKENPAVEQEWDIQWEIFRLLAECEERDIELIKGLRADLREAGESNIGIIFQQ”, for which the “soluble on expression in E. coli” value was “not soluble”.
With “MKDTVMMKLNTKESMAQIDGQTIYFKQIGEGKPPLLMLHGFGGSSDGFSDIYPELARDHTIIAVDILGFGRSSKPVDFQYSFPAQVNLYYKLMKKLGYNQFAVLGHSMGGEMSLNLAYLYPDAVTHLILADATGIESFQQKESYEVPPLSTDLQTVTEITKYNKNEVKNSRDDKEHYDQLTKMRERRIAMEADKIKVPTLIIWGRHDKSVSWKNGELYHGLFANSTFHIIEKGYHAPFRQEPIEFMEYVQAFFAKHPQ” the entry was “not soluble”.
Turning to “MGSSQSTPKVQDANADAERIRKAQHSMAAAGGGSQCPLTPEQRAAASGENCGAGGACPVGADKASINPLNNELEHPNQKPAPDQPFALPTKREKSTIPKAGTETETWTYPSPQMFWNAMLKKGWRWQDDSLSKSDMENIISIHNANNEEAWREVLKWENLLHPECAEPKLKSFKGDAKNLSPRARFRNLFLGYDLPFDRHDWIVDRCGTKQVQYVIDYYDGGAVDPSSKLFTILDVRPAVNDIGNIWDRMVVAYWRFKFETLGFTPSLPIPPTEGHNVNH”, the “soluble on expression in E. coli” value is listed as “not soluble”.
